In patent US12385058B2, “Herbicide tolerance protein, encoding gene thereof and use thereof” (Beijing Dabeinong Biotechnology Co., Ltd., priority 2018, dated 2025):

B1: ALT02M1-02: nucleotide sequence SEQ ID NO: 26 encoding ALT02M1, based on maize codon usage bias (nucleic acid)
DNA: ATGGAGACTGATAACGTGGAGCTGGCGCAGAGCAAGAGGAAGGTGGTTCTGGCTGAGCAGGGGTCGTTCTACATTGGGGGGCGGACTGTGACCGGGCCCGGCAAGTTCGACCCATCGAAGCCTGTCATTCCGTACTCTAACGAGGGCGCTACGTTCTACATCAACCAGATGTACGTGAATTTCCAGGCTCCCGTCCGCCCAAGGGGCCTCCCACTGGTGTTCTGGCACGGCGGGGGCCTGACAGGCCATATCTGGGAGTCCACTCCAGATGGCCGCCCAGGGTTCCAGACACTCTTCGTTCAGGACAGGCACACAGTGTACACTATTGATCAGCCAGGGAGGGGCAGGGGGAACATCCCTACCTTCAATGGCCCATTCGGGCAGCTGGAGGAGGAGTCCATCGTGAACACCGTCACGGCGAATTCCAGCAAGGAGGGGGCTTGGGTCAGGGACCGGCTCGGCCCGGCCCCAGGGCAGTTCTTCGAGAACTCTCAGTTCCCCCGGGGCTACGAGGATAATTACTTCAAGGAGATGGGCTTCTCACCATCCATCTCGTCTGACGAGATTGTCGATGCCGTGGTCAAGCTCGTTACCCACATCGGCCCTTGCGTTCTGGTGACGCATAGCGCTTCGGGCGTCCTCGGGATGAGGGTTGCTACACATGCGAAGAACGTTCGCGGCATCGTGGCTTACGAGCCGGCCACTTCCATTTTCCCCAAGGGCAAGGTGCCAGAGATCCCACCACTGGCCGACAAGAAGTCACAGATCTTCCCACCTTTCGAGATTCAGGAGTCCTACTTCAAGAAGCTCGCTAAGATCCCCATTCAGTTCGTGTTCGGCGACAACATTCCTAAGAATCCGAAGAGCGCGTACTGGTTCCTGGATTGGTGGCGCGTCACGCGCTACGCGCACTCTCTCTCACTGGAGGCTATCAACAAGCTCGGGGGCCAGGCCTCGCTCCTGGACCTCCCTACCGCTGGCCTGAGGGGGAACACCCATTTCCCGTTCACGGATCGGAACAATGTCCAGGTTGCGTCCCTCCTGAGCGATTTCCTCGGCAAGCACGGGCTGGATCAGAATGAGTCTAAGCTCGCTGCGGCGCTGGAGTGA
modifications: the ALT02M1-02 nucleotide sequence encoding the amino acid sequence corresponding to the herbicide tolerant protein ALT02M1 and based on the maize codon usage bias
B2: ALT02M2-02: nucleotide sequence SEQ ID NO: 30 encoding ALT02M2, based on maize codon usage bias (nucleic acid)
DNA: ATGGAGACTGATAACGTGGAGCTGGCGCAGAGCAAGAGGAAGGTGGTTCTGGCTGAGCAGGGGTCGTTCTACATTGGGGGGCGGACTGTGACCGGGCCCGGCAAGTTCGACCCATCGAAGCCTGTCATTCCGTACTCTAACGAGGGCGCTACGTTCTACATCAACCAGATGTACGTGAATTTCCAGGCTCCCGTCCGCCCAAGGGGCCTCCCACTGGTGTTCTGGCACGGCGGGGGCCTGACAGGCCATATCTGGGAGTCCACTCCAGATGGCCGCCCAGGGTTCCAGACACTCTTCGTTCAGGACAGGCACACAGTGTACACTATTGATCAGCCAGGGAGGGGCAGGGGGAACATCCCTACCTTCAATGGCCCATTCGGGCAGCTGGAGGAGGAGTCCATCGTGAACACCGTCACGGGCAATGTGAGCAAGGAGGGGGCTTGGGTCAGGGACCGGCTCGGCCCGGCCCCAGGGCAGTTCTTCGAGAACTCTCAGTTCCCCCGGGGCTACGAGGATAATTACTTCAAGGAGATGGGCTTCTCACCATCCATCTCGTCTGACGAGATTGTCGATGCCGTGGTCAAGCTCGTTACCCACATCGGCCCTTGCGTTCTGGTGACGCATAGCGCTTCGGGCGTCCTCGGGATGAGGGTTGCTACACATGCGAAGAACGTTCGCGGCATCGTGGCTTACGAGCCGGCCACTTCCATTTTCCCCAAGGGCAAGGTGCCAGAGATCCCACCACTGGCCGACAAGAAGTCACAGATCTTCCCACCTTTCGAGATTCAGGAGTCCTACTTCAAGAAGCTCGCTAAGATCCCCATTCAGTTCGTGTTCGGCGACAACATTCCTAAGAATCCGAAGAGCGCGTACTGGTTCCTGGATTGGTGGCGCGTCACGCGCTACGCGCACTCTCTCTCACTGGAGGCTATCAACAAGCTCGGGGGCCAGGCCTCGCTCCTGGACCTCCCTACCGCTGGCCTGAGGGGGAACACCCATTTCCCGTTCACGGATCGGAACAATGTCCAGGTTGCGTCCCTCCTGAGCGATTTCCTCGGCAAGCACGGGCTGGATCAGAATGAGTCTAAGCTCGCTGCGGCGCTGGAGTGA
modifications: the ALT02M2-02 nucleotide sequence encoding the amino acid sequence corresponding to the herbicide tolerant protein ALT02M2 and based on the maize codon usage bias
B3: ALT02M3-02: nucleotide sequence SEQ ID NO: 34 encoding ALT02M3, based on maize codon usage bias (nucleic acid)
DNA: ATGGAGACTGATAACGTGGAGCTGGCGCAGAGCAAGAGGAAGGTGGTTCTGGCTGAGCAGGGGTCGTTCTACATTGGGGGGCGGACTGTGACCGGGCCCGGCAAGTTCGACCCATCGAAGCCTGTCATTCGGGCGTCTAACGAGGGCGCTACGTTCTACATCAACCAGATGTACGTGAATTTCCAGGCTCCCGTCCGCCCAAGGGGCCTCCCACTGGTGTTCTGGCACGGCGGGGGCCTGACAGGCCATATCTGGGAGTCCACTCCAGATGGCCGCCCAGGGTTCCAGACACTCTTCGTTCAGGACAGGCACACAGTGTACACTATTGATCAGCCAGGGAGGGGCAGGGGGAACATCCCTACCTTCAATGGCCCATTCGGGCAGCTGGAGGAGGAGTCCATCGTGAACACCGTCACGGCGAATGTGAGCAAGGAGCGGGCTTGGGTCAGGGACCGGCTCGGCCCGGCCCCAGGGCAGTTCTTCGAGAACTCTCAGTTCCCCCGGGGCTACGAGGATAATTACTTCAAGGAGATGGGCTTCTCACCATCCATCTCGTCTGACGAGATTGTCGATGCCGTGGTCAAGCTCGTTACCCACATCGGCCCTTGCGTTCTGGTGACGCATAGCGCTTCGGGCGTCCTCGGGATGAGGGTTGCTACACATGCGAAGAACGTTCGCGGCATCGTGGCTTACGAGCCGGCCACTTCCATTTTCCCCAAGGGCAAGGTGCCAGAGATCCCACCACTGGCCGACAAGAAGTCACAGATCTTCCCACCTTTCGAGATTCAGGAGTCCTACTTCAAGAAGCTCGCTAAGATCCCCATTCAGTTCGTGTTCGGCGACAACATTCCTAAGAATCCGAAGAGCGCGTACTGGTTCCTGGATTGGTGGCGCGTCACGCGCTACGCGCACTCTCTCTCACTGGAGGCTATCAACAAGCTCGGGGGCCAGGCCTCGCTCCTGGACCTCCCTACCGCTGGCCTGAGGGGGAACACCCATTTCCCGTTCACGGATCGGAACAATGTCCAGGTTGCGTCCCTCCTGAGCGATTTCCTCGGCAAGCACGGGCTGGATCAGAATGAGTCTAAGCTCGCTGCGGCGCTGGAGTGA
modifications: the ALT02M3-02 nucleotide sequence encoding the amino acid sequence corresponding to the herbicide tolerant protein ALT02M3 and based on the maize codon usage bias
B4: ALT02-02: nucleotide sequence SEQ ID NO: 22 encoding ALT02, based on maize codon usage bias (nucleic acid)
DNA: ATGGAGACTGATAACGTGGAGCTGGCGCAGAGCAAGAGGAAGGTGGTTCTGGCTGAGCAGGGGTCGTTCTACATTGGGGGGCGGACTGTGACCGGGCCCGGCAAGTTCGACCCATCGAAGCCTGTCATTCCGTACTCTAACGAGGGCGCTACGTTCTACATCAACCAGATGTACGTGAATTTCCAGGCTCCCGTCCGCCCAAGGGGCCTCCCACTGGTGTTCTGGCACGGCGGGGGCCTGACAGGCCATATCTGGGAGTCCACTCCAGATGGCCGCCCAGGGTTCCAGACACTCTTCGTTCAGGACAGGCACACAGTGTACACTATTGATCAGCCAGGGAGGGGCAGGGGGAACATCCCTACCTTCAATGGCCCATTCGGGCAGCTGGAGGAGGAGTCCATCGTGAACACCGTCACGGGCAATTCCAGCAAGGAGGGGGCTTGGGTCAGGGACCGGCTCGGCCCGGCCCCAGGGCAGTTCTTCGAGAACTCTCAGTTCCCCCGGGGCTACGAGGATAATTACTTCAAGGAGATGGGCTTCTCACCATCCATCTCGTCTGACGAGATTGTCGATGCCGTGGTCAAGCTCGTTACCCACATCGGCCCTTGCGTTCTGGTGACGCATAGCGCTTCGGGCGTCCTCGGGATGAGGGTTGCTACACATGCGAAGAACGTTCGCGGCATCGTGGCTTACGAGCCGGCCACTTCCATTTTCCCCAAGGGCAAGGTGCCAGAGATCCCACCACTGGCCGACAAGAAGTCACAGATCTTCCCACCTTTCGAGATTCAGGAGTCCTACTTCAAGAAGCTCGCTAAGATCCCCATTCAGTTCGTGTTCGGCGACAACATTCCTAAGAATCCGAAGAGCGCGTACTGGTTCCTGGATTGGTGGCGCGTCACGCGCTACGCGCACTCTCTCTCACTGGAGGCTATCAACAAGCTCGGGGGCCAGGCCTCGCTCCTGGACCTCCCTACCGCTGGCCTGAGGGGGAACACCCATTTCCCGTTCACGGATCGGAACAATGTCCAGGTTGCGTCCCTCCTGAGCGATTTCCTCGGCAAGCACGGGCTGGATCAGAATGAGTCTAAGCTCGCTGCGGCGCTGGAGTGA
modifications: the ALT02-02 nucleotide sequence encoding the amino acid sequence corresponding to the herbicide tolerant protein ALT02 and based on the maize codon usage bias

system: maize plants; assay: Herbicide tolerance of transgenic maize T1 plants (spraying, damage degree); type: in vivo; conditions: sprayed with tribenuron-methyl 144 g ai/ha, eight-fold field concentration
Experimental: The degree of damage caused by the herbicide was measured for each plant according to the plant growth status 3 days after spraying (3 DAT), 7 days after spraying (7 DAT), 14 days after spraying (14 DAT) and 21 days after spraying (21 DAT): a growth status equivalent to that of the untreated plants is defined as having a damage degree of 0%; the case where leaves are locally chlorotic and yellow but the normal plant growth is substantially not affected is defined as having a damage degree of 50%; and the case where the whole plant is purple and dying is defined as having a damage degree of 100%. The maize plants into which the ALT02M1-02 nucleotide sequence was introduced were of three strains in total (S15, S16 and S17), the maize plants into which the ALT02M2-02 nucleotide sequence was introduced were of three strains in total (S18, S19 and S20), the maize plants into which the ALT02M3-02 nucleotide sequence was introduced were of three strains in total (S21, S22 and S23), the maize plants into which the ALT02-02 nucleotide sequence was introduced were of three strains in total (S24, S25 and S26), the control maize plants were of two strains in total (S27 and S28), and the wild-type maize plants were of one strain in total (CK2); and 10-15 plants were selected from each strain and tested.

Molecule	herbicide tolerance compared with maize plants into which ALT02-02 was introduced	herbicide tolerance imparted to transgenic maize plants
B1	significantly increased tolerance to benzenesulfonic acid	impart transgenic maize plants with the tolerance to benzenesulfonic acid
B2	significantly increased tolerance to benzenesulfonic acid	impart transgenic maize plants with the tolerance to benzenesulfonic acid
B3	significantly increased tolerance to benzenesulfonic acid	impart transgenic maize plants with the tolerance to benzenesulfonic acid
B4	–	impart transgenic maize plants with the tolerance to benzenesulfonic acid
